{
  "source": "patent US5436138A",
  "about": "“Method for protein N-myristoylation” (Washington University, priority 1993, dated 1995)",
  "molecules": {"B1": {"name": "E. coli-derived S. cerevisiae NMT (Total E. coli NMT) (Saccharomyces cerevisiae S288C; S2A) (protein)", "chain": "MAEEDKAKKLENLLKLLQLNNDDTSKFTQEQKKAMKDHKFWRTQPVKDFDEKVVEEGPIDKPKTPEDISDKPLPLLSSFEWCSIDVDNKKQLEDVFVLLNENYVEDRDAGFRFNYTKEFFNWALKSPGWKKDWHIGVRVKETQKLVAFISAIPVTLGVRGKQVPSVEINFLCVHKQLRSKRLTPVLIKEITRRVNKCDIWHALYTAGIVLPAPVSTCRYTHRPLNWKKLYEVDFTGLPDGHTEEDMIAENALPAKTKTAGLRKLKKEDIDQVFELFKRYQSRFELIQIFTKEEFEHNFIGEESLPLDKQVIFSYVVEQPDGKITDFFSFYSLPFTILNNTKYKDLGIGYLYYYATDADFQFKDRFDPKATKALKTRLCELIYDACILAKNANMDVFNALTSQDNTLFLDDLKFGPGDGFLNFYLFNYRAKPITGGLNPDNSNDIKRRSNVGVVML", "notes": "intact 53 kDa (codon 2 Ser to Ala from cloning) plus 45 kDa truncated form"}, "B2": {"name": "45 kDa E. coli NMT (NMT missing the NH2-terminal 39 residues) (Saccharomyces cerevisiae S288C) (protein)", "chain": "FWRTQPVKDFDEKVVEEGPIDKPKTPEDISDKPLPLLSSFEWCSIDVDNKKQLEDVFVLLNENYVEDRDAGFRFNYTKEFFNWALKSPGWKKDWHIGVRVKETQKLVAFISAIPVTLGVRGKQVPSVEINFLCVHKQLRSKRLTPVLIKEITRRVNKCDIWHALYTAGIVLPAPVSTCRYTHRPLNWKKLYEVDFTGLPDGHTEEDMIAENALPAKTKTAGLRKLKKEDIDQVFELFKRYQSRFELIQIFTKEEFEHNFIGEESLPLDKQVIFSYVVEQPDGKITDFFSFYSLPFTILNNTKYKDLGIGYLYYYATDADFQFKDRFDPKATKALKTRLCELIYDACILAKNANMDVFNALTSQDNTLFLDDLKFGPGDGFLNFYLFNYRAKPITGGLNPDNSNDIKRRSNVGVVML", "notes": "S2A lies in the removed part"}},
  "key": {"p60^v-src": {"test_system": "p60^v-src", "settings": "membrane versus cytosolic fractions; cited from earlier work"}, "[1]": {"settings": "compared with myristic acid; cited from earlier work"}, "[2]": {"substrate": "C[C@H](NC(=O)[C@H](C)NC(=O)[C@H](C)NC(=O)[C@H](CC(N)=O)NC(=O)CN)C(=O)N[C@@H](C)C(=O)N[C@@H](CCCNC(=N)N)C(=O)N[C@@H](CCCNC(=N)N)C(N)=O", "test": "coupled in vitro assay for NMT activity, Total E. coli NMT", "assay_type": "biochemical, S. cerevisiae", "settings": "other: peptide substrate varied, 15 μM myristate", "method": "(§1) In vitro assay system for NMT activity. To assess the peptide and acyl-CoA substrate specificities of E. coli-derived S. cerevisiae NMT, crude lysates or partially purified enzyme preparations were added to a coupled in vitro assay system [Towler and Glaser, Proc. Natl. Acad. Sci. USA 83, 2812-2816 (1986)]. The first step of this assay involves enzymatic conversion of radiolabeled fatty acids to their CoA thioesters by Pseudomonas acyl-CoA ligase. This ligase is largely nonspecific for fatty acid substrates [Shimizu et al., Anal. Biochem. 107, 193-198 (1980)]. Octapeptide substrates and NMT were then added to produce acylpeptides. Acylpeptides were purified from the reaction mixture by trichloroacetic acid/methanol precipitation and C18 reverse phase HPLC using a linear gradient of acetonitrile in water [Towler and Glaser, Proc. Natl. Acad. Sci. USA 83, 2812-2816 (1986)].\n(§2) The peptide Km and Vmax values shown in the above Table I are averages obtained from 4- or 5-point Lineweaver-Burke plots. These plots were produced using data generated in at least three independent in vitro NMT assays. Varying concentrations of peptides were assayed with 15 μM myristate to determine peptide Km and Vmax values. […] Yeast NMT was from a 570 fold purified preparation [Towler et al., Proc. Natl. Acad. Sci. USA 84, 2708-2712 (1987)]. […] ND=not determined."}, "[3]": {"substrate": "C[C@H](NC(=O)[C@H](C)NC(=O)[C@H](CC(N)=O)NC(=O)CN)C(=O)N[C@@H](CO)C(=O)N[C@@H](C)C(=O)N[C@@H](CCCNC(=N)N)C(=O)N[C@@H](CCCNC(=N)N)C(N)=O", "test": "coupled in vitro assay for NMT activity, Total E. coli NMT", "assay_type": "biochemical, S. cerevisiae", "settings": "other: peptide substrate varied, 15 μM myristate", "method": "as §1, §2"}, "[4]": {"substrate": "CCCCCCCCCCCCCC(=O)SCCNC(=O)CCNC(=O)[C@H](O)C(C)(C)COP(=O)(O)OP(=O)(O)OC[C@H]1O[C@@H](n2cnc3c(N)ncnc32)[C@H](O)[C@@H]1OP(=O)(O)O", "test": "cells, lysate or membranes named", "settings": "other: fatty acyl-CoA substrate varied, 60 μM GNAAAARR"}, "[5]": {"substrate": "CCCCCCCCCCCCCCCC(=O)SCCNC(=O)CCNC(=O)[C@H](O)C(C)(C)COP(=O)(O)OP(=O)(O)OC[C@H]1O[C@@H](n2cnc3c(N)ncnc32)[C@H](O)[C@@H]1OP(=O)(O)O", "test": "coupled in vitro assay for NMT activity, 45 kDa E. coli NMT", "assay_type": "biochemical, S. cerevisiae", "settings": "other: fatty acyl-CoA substrate varied, 60 μM GNAAAARR", "method": "as §1\n(§3) To obtain a homogenous preparation of the enzyme, E. coli-produced NMT was further purified by Mono S fast protein liquid chromatography (FPLC).\nas §2, with “(1987)]. Synthetic peptide substrates are represented by their conventional one letter amino acid code.” for “(1987)].”"}, "[6]": {"substrate": "CCCOCCCCCCCCCC(=O)SCCNC(=O)CCNC(=O)[C@H](O)C(C)(C)COP(=O)(O)OP(=O)(O)OC[C@H]1O[C@@H](n2cnc3c(N)ncnc32)[C@H](O)[C@@H]1OP(=O)(O)O", "test": "coupled in vitro assay for NMT activity, 45 kDa E. coli NMT", "assay_type": "biochemical, S. cerevisiae", "settings": "other: fatty acyl-CoA substrate varied, 60 μM GNAAAARR", "method": "as §1, §3\nas §2, with “(1987)]. Synthetic peptide substrates are represented by their conventional one letter amino acid code.” for “(1987)].”"}, "[7]": {"substrate": "C[C@H](NC(=O)[C@H](C)NC(=O)[C@H](CC(N)=O)NC(=O)CN)C(=O)N[C@@H](CO)C(=O)N[C@@H](C)C(=O)N[C@@H](CCCNC(=N)N)C(=O)N[C@@H](CCCNC(=N)N)C(N)=O", "test": "coupled in vitro assay for NMT activity, 45 kDa E. coli NMT", "assay_type": "biochemical, S. cerevisiae", "settings": "other: peptide substrate varied, 15 μM myristate", "method": "as §1, §3\nas §2, with “(1987)]. Synthetic peptide substrates are represented by their conventional one letter amino acid code.” for “(1987)].”"}},
  "data": [
    {"molecule": "CCCOCCCCCCCCCC(=O)O", "note": "[10-(Propoxy)decanoic acid]", "values": [
      {"measurement": "effect on p60v-src distribution when incorporated in vivo", "setting": "p60^v-src", "result": "significant redistribution of the protein from membrane to cytosolic fractions"},
      {"measurement": "hydrophobicity", "setting": "[1]", "result": "reduced hydrophobicity (comparable to decanoic acid)"}
    ]},
    {"molecule": "B1", "values": [
      {"measurement": "Km", "setting": "[2]", "result": 65.8, "unit": "µM"},
      {"measurement": "Km", "setting": "[3]", "result": 0.103, "unit": "µM"}
    ]},
    {"molecule": "B2", "values": [
      {"measurement": "Km", "setting": "[4]", "result": 0.36, "unit": "µM"},
      {"measurement": "Km", "setting": "[5]", "result": 0.96, "unit": "µM"},
      {"measurement": "Km", "setting": "[6]", "result": 1.2, "unit": "µM"},
      {"measurement": "Km", "setting": "[7]", "result": 0.38, "unit": "µM"}
    ]}
  ]
}
